# Test system: Escherichia coli TOP10
# Assay: shrunken log2 fold change of peptide-encoding DNA abundance (4.5 h post-induction vs induction); higher = less antimicrobial activity (less host growth inhibition)
# Conditions: time post-induction: 4.5 h; library: site-saturation at positions 5, 18, 19, 20
# 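Note: peptides expressed intracellularly from a pBAD plasmid library in pooled LB shake-flask culture, induced with 0.3% L-arabinose, DNA abundance read by NGS, three biological replicates, DESeq2 with apeglm shrinkage.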
row,Sequence,shrunken log2 fold change
1,RRIRHRPPRLPRPRPRPFMPPRP,-0.146
2,RRIRDRPPRLPRPRPRPNYKPRP,-0.241
3,RRIRMRPPRLPRPRPRPHKNPRP,0.195
4,RRIRKRPPRLPRPRPRPYPEPRP,-0.0874
5,RRIRSRPPRLPRPRPRPRIHPRP,-0.323
6,RRIRHRPPRLPRPRPRPGSMPRP,-0.099
7,RRIRTRPPRLPRPRPRPLCWPRP,0.0326
8,RRIRTRPPRLPRPRPRPSAFPRP,-0.0245
9,RRIRYRPPRLPRPRPRPVSFPRP,-0.717
10,RRIRVRPPRLPRPRPRPYTEPRP,-0.42
11,RRIRFRPPRLPRPRPRPPFMPRP,0.0431
12,RRIRPRPPRLPRPRPRPPHEPRP,-0.0736
13,RRIRLRPPRLPRPRPRPFCCPRP,-0.255
14,RRIRFRPPRLPRPRPRPCPHPRP,-0.135
15,RRIRCRPPRLPRPRPRPIAHPRP,-0.0801
16,RRIRYRPPRLPRPRPRPGPIPRP,-0.0295
17,RRIRSRPPRLPRPRPRPNMAPRP,-0.0738
18,RRIRERPPRLPRPRPRPELHPRP,0.0652
19,RRIRNRPPRLPRPRPRPIHTPRP,-0.0125
20,RRIRVRPPRLPRPRPRPMHPPRP,0.0843
21,RRIRDRPPRLPRPRPRPDFSPRP,0.0345
22,RRIRKRPPRLPRPRPRPSLSPRP,0.549
23,RRIRCRPPRLPRPRPRPKQMPRP,0.364
24,RRIRQRPPRLPRPRPRPWLYPRP,-0.0636
25,RRIRGRPPRLPRPRPRPETEPRP,2.25

row,Sequence,shrunken log2 fold change
1,RRIRWRPPRLPRPRPRPCNNPRP,0.00194
2,RRIRGRPPRLPRPRPRPGHFPRP,-0.0383
3,RRIRRRPPRLPRPRPRPMDAPRP,0.161
4,RRIRWRPPRLPRPRPRPQDRPRP,-0.0199
5,RRIRPRPPRLPRPRPRPGIPPRP,-0.157
6,RRIRGRPPRLPRPRPRPHCPPRP,0.084
7,RRIRERPPRLPRPRPRPFRYPRP,-0.268
8,RRIRWRPPRLPRPRPRPKGNPRP,0.514
9,RRIRWRPPRLPRPRPRPHWHPRP,-0.0347
10,RRIRYRPPRLPRPRPRPVRAPRP,0.774
11,RRIRKRPPRLPRPRPRPWSHPRP,0.0601
12,RRIRCRPPRLPRPRPRPTTRPRP,0.176
13,RRIRTRPPRLPRPRPRPDNMPRP,-0.909
14,RRIRDRPPRLPRPRPRPNAWPRP,-0.0496
15,RRIRFRPPRLPRPRPRPWKFPRP,0.0664
16,RRIRSRPPRLPRPRPRPKGPPRP,-0.00375
17,RRIRDRPPRLPRPRPRPLCLPRP,0.0562
18,RRIRPRPPRLPRPRPRPASKPRP,0.022
19,RRIRWRPPRLPRPRPRPFSVPRP,-0.159
20,RRIRVRPPRLPRPRPRPTCPPRP,0.243
21,RRIRFRPPRLPRPRPRPTGMPRP,0.00753
22,RRIRVRPPRLPRPRPRPIIAPRP,-0.195
23,RRIRYRPPRLPRPRPRPKRDPRP,-0.0103
24,RRIRFRPPRLPRPRPRPKDRPRP,0.148
25,RRIRMRPPRLPRPRPRPPIFPRP,0.00125

row,Sequence,shrunken log2 fold change
1,RRIRERPPRLPRPRPRPFDAPRP,-0.0912
2,RRIRRRPPRLPRPRPRPYKCPRP,-0.639
3,RRIRYRPPRLPRPRPRPQKNPRP,-0.555
4,RRIRYRPPRLPRPRPRPYATPRP,-0.175
5,RRIRIRPPRLPRPRPRPGGIPRP,-0.279
6,RRIRGRPPRLPRPRPRPNRWPRP,0.617
7,RRIRARPPRLPRPRPRPQIPPRP,-0.346
8,RRIRARPPRLPRPRPRPRVFPRP,0.704
9,RRIRGRPPRLPRPRPRPGQQPRP,0.0088
10,RRIRSRPPRLPRPRPRPQRDPRP,-0.117
11,RRIRLRPPRLPRPRPRPHDSPRP,0.0936
12,RRIRLRPPRLPRPRPRPNAVPRP,0.00719
13,RRIRLRPPRLPRPRPRPFAVPRP,-0.0849
14,RRIRLRPPRLPRPRPRPADWPRP,0.196
15,RRIRLRPPRLPRPRPRPQPVPRP,0.0205
16,RRIRRRPPRLPRPRPRPRHPPRP,0.524
17,RRIRKRPPRLPRPRPRPMPQPRP,0.0873
18,RRIRERPPRLPRPRPRPPKRPRP,0.259
19,RRIRGRPPRLPRPRPRPLRVPRP,1
20,RRIRKRPPRLPRPRPRPMSTPRP,0.41
21,RRIRYRPPRLPRPRPRPENLPRP,0.0949
22,RRIRKRPPRLPRPRPRPLQMPRP,-0.0261
23,RRIRERPPRLPRPRPRPSRGPRP,0.49
24,RRIRYRPPRLPRPRPRPLVLPRP,-0.206
25,RRIRDRPPRLPRPRPRPKYFPRP,-0.0236

row,Sequence,shrunken log2 fold change
1,RRIRNRPPRLPRPRPRPHPKPRP,0.187
2,RRIRGRPPRLPRPRPRPAAEPRP,2.52
3,RRIRSRPPRLPRPRPRPWCIPRP,-0.0292
4,RRIRSRPPRLPRPRPRPHRLPRP,-0.288
5,RRIRYRPPRLPRPRPRPQIGPRP,0.00262
6,RRIRYRPPRLPRPRPRPMNWPRP,-0.463
7,RRIRPRPPRLPRPRPRPDIAPRP,-0.0378
8,RRIRKRPPRLPRPRPRPMSDPRP,0.364
9,RRIRMRPPRLPRPRPRPGMVPRP,0.263
10,RRIRFRPPRLPRPRPRPCKMPRP,0.111
11,RRIRHRPPRLPRPRPRPKKGPRP,-0.0679
12,RRIRWRPPRLPRPRPRPPSMPRP,0.405
13,RRIRIRPPRLPRPRPRPWWFPRP,-0.0772
14,RRIRIRPPRLPRPRPRPPWTPRP,0.0205
15,RRIRQRPPRLPRPRPRPLCRPRP,-0.272
16,RRIRSRPPRLPRPRPRPEAQPRP,0.438
17,RRIRWRPPRLPRPRPRPDDKPRP,-0.139
18,RRIRYRPPRLPRPRPRPAGQPRP,0.00356
19,RRIRWRPPRLPRPRPRPRDDPRP,0.341
20,RRIRHRPPRLPRPRPRPPDTPRP,-0.071
21,RRIRERPPRLPRPRPRPPEGPRP,0.233
22,RRIRPRPPRLPRPRPRPSQTPRP,0.265
23,RRIRMRPPRLPRPRPRPLVGPRP,0.73
24,RRIRGRPPRLPRPRPRPEESPRP,1.82
25,RRIRARPPRLPRPRPRPEMPPRP,0.981

row,Sequence,shrunken log2 fold change
1,RRIRERPPRLPRPRPRPSERPRP,-0.239
2,RRIRKRPPRLPRPRPRPDKMPRP,-0.48
3,RRIRSRPPRLPRPRPRPWWEPRP,-0.0921
4,RRIRYRPPRLPRPRPRPGRVPRP,-0.106
5,RRIRFRPPRLPRPRPRPWIHPRP,-0.804
6,RRIRNRPPRLPRPRPRPHCHPRP,-0.398
7,RRIRTRPPRLPRPRPRPFVFPRP,-0.295
8,RRIRCRPPRLPRPRPRPTYIPRP,-0.959
9,RRIRQRPPRLPRPRPRPKIDPRP,-0.146
10,RRIRCRPPRLPRPRPRPACTPRP,-0.00637
11,RRIRMRPPRLPRPRPRPELKPRP,0.95
12,RRIRCRPPRLPRPRPRPCWMPRP,-0.404
13,RRIRIRPPRLPRPRPRPVERPRP,0.0257
14,RRIRQRPPRLPRPRPRPFWTPRP,-0.166
15,RRIRRRPPRLPRPRPRPQKMPRP,-0.02
16,RRIRMRPPRLPRPRPRPQMMPRP,0.443
17,RRIRRRPPRLPRPRPRPSQGPRP,0.0642
18,RRIRYRPPRLPRPRPRPSIYPRP,-1.09
19,RRIRCRPPRLPRPRPRPEVAPRP,0.293
20,RRIRYRPPRLPRPRPRPATTPRP,-0.415
21,RRIRIRPPRLPRPRPRPFMPPRP,-0.821
22,RRIRRRPPRLPRPRPRPWKNPRP,0.206
23,RRIRPRPPRLPRPRPRPRMGPRP,0.38
24,RRIRLRPPRLPRPRPRPEMNPRP,0.176
25,RRIRQRPPRLPRPRPRPGPVPRP,-0.0186

row,Sequence,shrunken log2 fold change
1,RRIRWRPPRLPRPRPRPFKQPRP,-0.104
2,RRIRCRPPRLPRPRPRPNAGPRP,-0.0355
3,RRIRRRPPRLPRPRPRPARDPRP,0.185
4,RRIRFRPPRLPRPRPRPMVQPRP,-0.106
5,RRIRQRPPRLPRPRPRPCSFPRP,-0.0439
6,RRIRRRPPRLPRPRPRPHRWPRP,0.409
7,RRIRSRPPRLPRPRPRPADWPRP,0.405
8,RRIRDRPPRLPRPRPRPSNRPRP,-0.052
9,RRIRARPPRLPRPRPRPSGRPRP,0.0751
10,RRIRQRPPRLPRPRPRPPNPPRP,0.109
11,RRIRYRPPRLPRPRPRPSMTPRP,-0.817
12,RRIRWRPPRLPRPRPRPKWKPRP,0.401
13,RRIRNRPPRLPRPRPRPQIQPRP,-0.214
14,RRIRDRPPRLPRPRPRPMKCPRP,-0.00962
15,RRIRNRPPRLPRPRPRPFEQPRP,-0.0506
16,RRIRLRPPRLPRPRPRPPANPRP,0.592
17,RRIRMRPPRLPRPRPRPEAHPRP,3.52
18,RRIRARPPRLPRPRPRPEALPRP,1.71
19,RRIRDRPPRLPRPRPRPSWVPRP,-0.211
20,RRIRSRPPRLPRPRPRPSLIPRP,-0.0623
21,RRIRMRPPRLPRPRPRPEDRPRP,-0.0526
22,RRIRQRPPRLPRPRPRPQYRPRP,0.0114
23,RRIRKRPPRLPRPRPRPDHCPRP,0.00904
24,RRIRLRPPRLPRPRPRPLTMPRP,-0.427
25,RRIRNRPPRLPRPRPRPAMYPRP,-0.112

# From the supplement of paper PMC9112550, “Optimization of the antimicrobial peptide Bac7 by deep mutational scanning” (BMC Biology, 2022)
